Here are results for 3 compounds from publication PMC5095703 (Biochemistry, 2016).

Data set [1] deals with FdhC-C-term tag (Acinetobacter nosocomialis, UniProt V5RDR9). The data set can be described thus: X-ray crystal structure, […] Å. The format is binding. The settings on record: ternary complex with dTDP-Fuc3N(R3Hb) (also with dTDP-Qui3N(R3Hb)), pH 5.0.
The test system of data set [2] is CC(=O)SCCNC(=O)CCNC(=O)[C@H](O)C(C)(C)COP(=O)(O)OP(=O)(O)OC[C@H]1O[C@@H](n2cnc3c(N)ncnc32)[C@H](O)[C@@H]1OP(=O)(O)O. Description: purified protein. The conditions noted are these: 5 mM dTDP-Fuc3N, 50 mM HEPES pH 7.5, 5 mM DTNB.
The subject of data set [3] is Cc1cn([C@H]2C[C@H](O)[C@@H](COP(=O)(O)OP(=O)(O)O[C@H]3O[C@H](C)[C@H](O)[C@H](N)[C@H]3O)O2)c(=O)[nH]c1=O. Description: purified protein. The settings on record: 1 mM 3-hydroxybutanoyl-CoA, 50 mM HEPES pH 7.5, 5 mM DTNB.
Data set [4] has as its system Cc1cn([C@H]2C[C@H](O)[C@@H](COP(=O)(O)OP(=O)(O)O[C@H]3O[C@H](C)[C@@H](O)[C@H](N)[C@H]3O)O2)c(=O)[nH]c1=O. Description: purified protein. The conditions noted are these: 1 mM 3-hydroxybutanoyl-CoA, 50 mM HEPES pH 7.5, 5 mM DTNB.

As for `CC(C)(COP(=O)(O)OP(=O)(O)OC[C@H]1O[C@@H](n2cnc3c(N)ncnc32)[C@H](O)[C@@H]1OP(=O)(O)O)[C@@H](O)C(=O)NCCC(=O)NCCS` [CoA], the “X-ray crystal structure, 1.8 Å” value in data set [1] was “the observed electron density for the CoA and the dTDP-Fuc3N(R3Hb) ligands”.

Regarding FdhC (Acinetobacter nosocomialis), the figures for the Michaelis constant (Km) in data set [2], in data set [3] and in data set [4] were 40 ± 10 µM, 650 ± 70 µM and 5300 ± 800 µM, respectively. Further, the figures for the kcat in data set [2], in data set [3] and in data set [4] were 0.0034 ± 0.0002 s⁻¹, 52.7 ± 2.1 s⁻¹ and 24.7 ± 1.7 s⁻¹, respectively. Further, the results for the kcat/Km in data set [2], in data set [3] and in data set [4] were 85 M⁻¹ s⁻¹, 81000 M⁻¹ s⁻¹ and 4700 M⁻¹ s⁻¹, respectively.

For the compound “FdhC-C-term tag (Acinetobacter nosocomialis)”, in data set [3], the Km is 1500 ± 200 µM, the kcat turned out to be 38.3 ± 1.9 s⁻¹ and the kcat/Km worked out at 26000 M⁻¹ s⁻¹.

As usually defined, the Km is the concentration of substrate that gives half-maximal velocity. For orientation: kcat means the number of substrate molecules converted per active site and unit of time at saturation. One may read the kcat/Km as the second-order rate constant that governs catalysis at low substrate concentration.
